Data as given in US20250340646A1.

What was measured:
human PD-L1-Fc (human) [1] = molecular target: human PD-L1-Fc (human) (UniProt Q9NZQ7); assay: ELISA, coated PD-L1-Fc, anti-FLAG HRP
[2] = molecular target: PD-L1 on PD-L1 aAPC/CHOK1 cells (Promega J1250); assay: cell-based or functional assay
[3] = molecular target: PD-L1 biotinylated (PD-1/PD-L1 TR-FRET assay kit, BPS 72038) (Homo sapiens (Human)) (UniProt Q9NZQ7); assay: HTRF competition, competitor PD-1-Eu
human PD-L1-Fc (human) [4] = molecular target: human PD-L1-Fc (human) (UniProt Q9NZQ7); assay: SPR, PD-L1-Fc captured, scFv analyte
[5] = molecular target: full-length human PD-L1 on K562 cells (human) (UniProt Q9NZQ7); assay: FACS, PD-L1/K562 cells

B1: 2018EP164-F04 scFv (scFv, part only; not given: linker and tags, not shown: small tags and cut ends)
scFv, part: QVQLQQWGAGLLKPSETLSLTCAVYGGSFSGYYWSWIRQPPGKGLEWIGEINHSGSTNYNPSLKSRVTISVDTSKNQFSLKLSSVTAADTAVYYCARGRRLRYFDWAAYNWFDPWGQGTLVTVSSQSALTQDPAVSVALGQTVRITCQGDSLRSHYASWYQQKPGQAPVVVVYDNSDRPSGIPDRFSGSNSGNTATLTISRVEVGDEADYYCQVWDSSSDHYVFGTGTKV
For B1, the EC50 (human PD-L1-Fc (human) [1]) was 1.27 nM, the Jurkat NFAT reporter assay EC50 [2] was 129 nM and the IC50 [3] was 173 nM. For the same binder, the Kd (human PD-L1-Fc (human) [4]) was 2.94 nM, the koff (human PD-L1-Fc (human) [4]) was 0.000722 s⁻¹ and the kon (human PD-L1-Fc (human) [4]) was 245000 M⁻¹ s⁻¹.

B2: 2018EP161-F04 scFv (scFv, part only; not given: linker and tags, not shown: small tags and cut ends)
scFv, part: QMQLVQSGAEVKKPGATVKISCKVSGYTFTDYYMHWVQQAPGKGLEWMGLVDPEDGETIYAEKFQGRVTITADTSTDTAYMELSSLRSEDTAVFYCATDGSGSYYLTLGQGTLVTVSSNFMLTQPSSLSASPGASASLTCTLPSGINVGPYGIFWYQQKPGSPPQYLLRYKSNSENHQGSGVPSRFSGSEDASANVGILLISGLQSEDEADYYCMIWHSSAWVFGGGTKVTVL
With B2 the EC50 [5] was 5.8 nM.
